# Source: article doi:10.1101/2021.05.10.443400 (bioRxiv, 2021)
# B1: GST-Flag-Orc6 middle TFIIB (TFIIB-B) domain (94-187) (domain or fragment, human, UniProt Q9Y5N6 94-187, looked up)
# chain: SNIGIRDLAVQFSCIEAVNMASKILKSYESSLPQTQQVDLDLSRPLFTSAALLSACKILKLKVDKNKMVATSGVKKAIFDRLCKQLEKIGQQVD
# B2: Human Flag-MutLα (MLH1-PMS2 complex), purified (complex)
# chain 1: MSFVAGVIRRLDETVVNRIAAGEVIQRPANAIKEMIENCLDAKSTSIQVIVKEGGLKLIQIQDNGTGIRKEDLDIVCERFTTSKLQSFEDLASISTYGFRGEALASISHVAHVTITTKTADGKCAYRASYSDGKLKAPPKPCAGNQGTQITVEDLFYNIATRRKALKNPSEEYGKILEVVGRYSVHNAGISFSVKKQGETVADVRTLPNASTVDNIRSIFGNAVSRELIEIGCEDKTLAFKMNGYISNANYSVKKCIFLLFINHRLVESTSLRKAIETVYAAYLPKNTHPFLYLSLEISPQNVDVNVHPTKHEVHFLHEESILERVQQHIESKLLGSNSSRMYFTQTLLPGLAGPSGEMVKSTTSLTSSSTSGSSDKVYAHQMVRTDSREQKLDAFLQPLSKPLSSQPQAIVTEDKTDISSGRARQQDEEMLELPAPAEVAAKNQSLEGDTTKGTSEMSEKRGPTSSNPRKRHREDSDVEMVEDDSRKEMTAACTPRRRIINLTSVLSLQEEINEQGHEVLREMLHNHSFVGCVNPQWALAQHQTKLYLLNTTKLSEELFYQILIYDFANFGVLRLSEPAPLFDLAMLALDSPESGWTEEDGPKEGLAEYIVEFLKKKAEMLADYFSLEIDEEGNLIGLPLLIDNYVPPLEGLPIFILRLATEVNWDEEKECFESLSKECAMFYSIRKQYISEESTLSGQQSEVPGSIPNSWKWTVEHIVYKALRSHILPPKHFTEDGNILQLANLPDLYKVFERC
# chain 2: MERAESSSTEPAKAIKPIDRKSVHQICSGQVVLSLSTAVKELVENSLDAGATNIDLKLKDYGVDLIEVSDNGCGVEEENFEGLTLKHHTSKIQEFADLTQVETFGFRGEALSSLCALSDVTISTCHASAKVGTRLMFDHNGKIIQKTPYPRPRGTTVSVQQLFSTLPVRHKEFQRNIKKEYAKMVQVLHAYCIISAGIRVSCTNQLGQGKRQPVVCTGGSPSIKENIGSVFGQKQLQSLIPFVQLPPSDSVCEEYGLSCSDALHNLFYISGFISQCTHGVGRSSTDRQFFFINRRPCDPAKVCRLVNEVYHMYNRHQYPFVVLNISVDSECVDINVTPDKRQILLQEEKLLLAVLKTSLIGMFDSDVNKLNVSQQPLLDVEGNLIKMHAADLEKPMVEKQDQSPSLRTGEEKKDVSISRLREAFSLRHTTENKPHSPKTPEPRRSPLGQKRGMLSSSTSGAISDKGVLRPQKEAVSSSHGPSDPTDRAEVEKDSGHGSTSVDSEGFSIPDTGSHCSSEYAASSPGDRGSQEHVDSQEKAPKTDDSFSDVDCHSNQEDTGCKFRVLPQPTNLATPNTKRFKKEEILSSSDICQKLVNTQDMSASQVDVAVKINKKVVPLDFSMSSLAKRIKQLHHEAQQSEGEQNYRKFRAKICPGENQAAEDELRKEISKTMFAEMEIIGQFNLGFIITKLNEDIFIVDQHATDEKYNFEMLQQHTVLQGQRLIAPQTLNLTAVNEAVLIENLEIFRKNGFDFVIDENAPVTERAKLISLPTSKNWTFGPQDVDELIFMLSDSPGVMCRPSRVKQMFASRACRKSVMIGTALNTSEMKKLITHMGEMDHPWNCPHGRPTMRHIANLGVISQN
# B3: Human GST-Flag-Orc6, full length (natural protein, UniProt Q9Y5N6 1-252, looked up)
# chain: MGSELIGRLAPRLGLAEPDMLRKAEEYLRLSRVKCVGLSARTTETSSAVMCLDLAASWMKCPLDRAYLIKLSGLNKETYQSCLKSFECLLGLNSNIGIRDLAVQFSCIEAVNMASKILKSYESSLPQTQQVDLDLSRPLFTSAALLSACKILKLKVDKNKMVATSGVKKAIFDRLCKQLEKIGQQVDREPGDVATPPRKRKKIVVEAPAKEMEKVEEMPHKPQKDEDLTQDYEEWKRKILENAASAQKATAE
# Key:
# [1] = target: T1, Human MutSα (MSH2-MSH6 complex), purified (human, UniProt P43246 1-934; P52701 1-1360); assay: pull-down
# [2] = target: T1, Human MutSα (MSH2-MSH6 complex), …; assay: co-IP
# T1 sequence (P43246 whole entry, chain 1 of 2): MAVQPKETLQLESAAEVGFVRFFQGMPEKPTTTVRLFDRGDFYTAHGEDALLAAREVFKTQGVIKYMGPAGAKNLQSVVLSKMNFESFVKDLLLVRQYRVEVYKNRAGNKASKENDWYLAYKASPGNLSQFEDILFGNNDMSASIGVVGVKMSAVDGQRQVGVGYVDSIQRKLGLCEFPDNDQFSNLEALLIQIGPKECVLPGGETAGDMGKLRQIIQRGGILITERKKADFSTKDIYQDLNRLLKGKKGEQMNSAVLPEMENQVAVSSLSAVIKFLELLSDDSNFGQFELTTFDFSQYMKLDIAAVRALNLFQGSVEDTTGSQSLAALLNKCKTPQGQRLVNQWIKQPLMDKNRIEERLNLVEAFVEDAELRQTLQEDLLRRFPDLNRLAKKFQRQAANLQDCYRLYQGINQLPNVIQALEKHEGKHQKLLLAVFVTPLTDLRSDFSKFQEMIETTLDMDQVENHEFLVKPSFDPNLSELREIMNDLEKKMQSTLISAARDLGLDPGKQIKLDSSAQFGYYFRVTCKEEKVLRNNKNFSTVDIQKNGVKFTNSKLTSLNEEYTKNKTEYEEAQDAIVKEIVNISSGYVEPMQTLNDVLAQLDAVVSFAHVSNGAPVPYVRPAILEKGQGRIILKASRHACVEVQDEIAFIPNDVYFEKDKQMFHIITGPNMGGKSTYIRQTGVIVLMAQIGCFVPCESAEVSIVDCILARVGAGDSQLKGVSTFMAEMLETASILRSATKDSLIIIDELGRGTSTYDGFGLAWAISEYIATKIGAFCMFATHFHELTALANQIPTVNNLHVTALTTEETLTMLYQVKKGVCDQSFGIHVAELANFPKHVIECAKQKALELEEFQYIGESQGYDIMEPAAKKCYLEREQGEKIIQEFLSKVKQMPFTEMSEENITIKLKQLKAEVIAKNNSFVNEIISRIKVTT
# T1 sequence (P52701 whole entry, chain 2 of 2): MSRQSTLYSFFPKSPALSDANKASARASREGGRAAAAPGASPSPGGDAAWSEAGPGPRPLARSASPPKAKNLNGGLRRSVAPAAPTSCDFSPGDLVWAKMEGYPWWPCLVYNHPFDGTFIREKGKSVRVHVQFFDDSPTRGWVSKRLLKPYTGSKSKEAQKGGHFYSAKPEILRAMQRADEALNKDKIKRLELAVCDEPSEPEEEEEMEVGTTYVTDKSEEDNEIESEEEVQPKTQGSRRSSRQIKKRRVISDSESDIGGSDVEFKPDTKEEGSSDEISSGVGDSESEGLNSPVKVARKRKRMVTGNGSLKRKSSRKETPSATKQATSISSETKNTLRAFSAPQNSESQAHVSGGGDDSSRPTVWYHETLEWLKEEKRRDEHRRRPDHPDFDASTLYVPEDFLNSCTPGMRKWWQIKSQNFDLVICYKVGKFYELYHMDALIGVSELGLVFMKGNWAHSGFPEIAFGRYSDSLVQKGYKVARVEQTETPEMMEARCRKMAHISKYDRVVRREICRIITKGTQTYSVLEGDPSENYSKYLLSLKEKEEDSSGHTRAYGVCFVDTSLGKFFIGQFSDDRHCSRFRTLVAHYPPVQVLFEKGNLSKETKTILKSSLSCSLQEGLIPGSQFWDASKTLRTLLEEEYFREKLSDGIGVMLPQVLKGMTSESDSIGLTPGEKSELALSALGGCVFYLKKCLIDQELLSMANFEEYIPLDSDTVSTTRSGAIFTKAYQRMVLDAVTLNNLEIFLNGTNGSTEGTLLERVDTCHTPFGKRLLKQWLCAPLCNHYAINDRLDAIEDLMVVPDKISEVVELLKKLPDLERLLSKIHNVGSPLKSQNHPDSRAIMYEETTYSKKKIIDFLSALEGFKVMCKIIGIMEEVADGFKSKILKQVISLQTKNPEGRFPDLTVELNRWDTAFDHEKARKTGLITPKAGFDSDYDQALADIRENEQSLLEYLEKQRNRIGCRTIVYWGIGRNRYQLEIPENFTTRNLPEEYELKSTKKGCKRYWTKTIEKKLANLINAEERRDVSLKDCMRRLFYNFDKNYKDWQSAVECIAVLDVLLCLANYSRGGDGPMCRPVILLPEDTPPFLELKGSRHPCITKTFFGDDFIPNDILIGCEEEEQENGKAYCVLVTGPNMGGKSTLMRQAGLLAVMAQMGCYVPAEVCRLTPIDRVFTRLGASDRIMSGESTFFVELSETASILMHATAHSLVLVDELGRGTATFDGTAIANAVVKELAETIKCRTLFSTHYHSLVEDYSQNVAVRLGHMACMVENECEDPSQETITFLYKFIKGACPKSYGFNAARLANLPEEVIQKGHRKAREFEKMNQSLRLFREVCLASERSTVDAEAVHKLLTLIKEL
Binder,binding result [1],binding result [2]
B1,binds,
B2,,binds
B3,binds,
